For assay [1], the target named is T1, SARS-CoV-2 Spike receptor-binding domain (RBD), wild type, as used for BLI (SARS-CoV-2, wild type, UniProt P0DTC2). Kind of assay: BLI. For orientation: Biolayer interferometry detects binding as a change in optical thickness at a sensor tip.
In assay [2] the target is SARS-CoV-2 RBD, as used for crystallization (SARS-CoV-2, wild type, UniProt P0DTC2). In words: crystal structure.
In assay [3] the target is T1, SARS-CoV-2 Spike receptor-binding ….

Where two headings read alike, the source gives them in different places.

B1: C080 IgG (antibody, V domains shown)
VH: EVQLVQSGAEVKKPGESLNISCKASGYSFTIYWIAWVRQLPGKGLEWMGIIYPGDSDTRYSPSFQGQVTISADKSISTAYLQWRSLKASDSAVYYCARGVAVDWYFDLWGRGTLVTVSS
VL: QSVLTQPPSVSGAPGQRVTISCAGSSSNIGAGFDVYWYQQLPGTAPKLLIYGNNNRPSGVPDRFSGSKSGTSASLAITGLQAEDEADYYCQSSGSVLSDLYVFGTGTKVTVL
As for B1, in assay [1], the binding result was “binds”.

B2: C548 IgG (antibody, V domains shown)
VH: QVQLVQSGAEVKKPGSSVKVSCKASGGTFSSYAISWVRQAPGQGLEWMGGIIPIFGTANYAQKFQGRVTITADESTSTAYMELSSLRSEDTAVYYCARREAYGPRDYYYYYGMDVWGQGTTVTVSS
VL: QSALTQPPSASASLGASVTLTCTLSSGYSNYKVDWYQQRPGKGPRFVMRVGTGGIVGSKGDGIPDRFSVLGSGLNRYLTIKNIQEEDESDYHCGADQGSGSNFVGVFGGGTKLTV
Regarding B2, in assay [1], the binding result is given as “binds”.

B3: C099 IgG (antibody, V domains shown)
VH: EVQLVESGGGLIQPGGSLRLSCAASGITVSSNYMSWVRQAPGKGLEWVSVMYAGGSTFYADSVKGRFTISRDDSKNTLFLQMNSLRAEDTAIYYCARDLYSSGGTDIWGQGTMVTVSS
VL: EIVLTQSPGTLSLSPGERATLSCRASQSIGSSYLAWYQQKPGLAPRLLIYGASRRATGIPDKFSGSGSGADFTLTISRLEPEDFAVYYCQQYGSSPGTFGQGTKVEIK
Take B3: in assay [1], the binding result is on record as “binds”.

B4: C099 Fab (Fab, V domains shown)
VH: EVQLVESGGGLIQPGGSLRLSCAASGITVSSNYMSWVRQAPGKGLEWVSVMYAGGSTFYADSVKGRFTISRDDSKNTLFLQMNSLRAEDTAIYYCARDLYSSGGTDIWGQGTMVTVSS
VL: EIVLTQSPGTLSLSPGERATLSCRASQSIGSSYLAWYQQKPGLAPRLLIYGASRRATGIPDKFSGSGSGADFTLTISRLEPEDFAVYYCQQYGSSPGTFGQGTKVEIK
For the molecule B4, the binding result in assay [2] is recorded as “binds”.

B5: C549 (antibody, V domains shown)
VH: QVQLVQSGAEVKKPGSSVKVSCKASGGTFSTSAISWVRQAPGQGLEWMGGIIPFFGTPNYAQKFQGRVTIIADESTTTAYMELSGLRFEDSAVYYCARREPYGPRDYYYFFGMDVWGPGTTVTVSS
VL: QSALTQPPFASASLGASVTLTCTLSSDYSYYKVDWYQQRPGKGPRFVIRVGPGGIVGSKGDGFPDRFSVLGSGLNRSLTINNIQEEDEGDYHCGADEGSGGTFVGVFGGGTKLTV
As for B5, the binding result in assay [3] is “binds”.

The values above are taken from publication PMC8323339 (Immunity, 2021).
